Molecular target: T1, complement C1q (human, UniProt P02745;P02746;P02747)
T1 construct: also called human complement C1q; source: bought: Merk (Darmstadt, Germany); copies: 6 + 6 + 6
Experiment: MST; fluorescently labelled C1q (RED-NHS) 40 nM; TsCRT, TsCRT^Δ, mutants or P^TsCRT gradient-diluted; 50 mM Hepes, 150 mM NaCl, 2 mM CaCl2, 0.05% Tween 20, pH 7.4; Monolith NT.115, LED power 20%, MST power 50%
Settings: both partners purified

T1 sequence (P02745 23-245, chain 1 of 3): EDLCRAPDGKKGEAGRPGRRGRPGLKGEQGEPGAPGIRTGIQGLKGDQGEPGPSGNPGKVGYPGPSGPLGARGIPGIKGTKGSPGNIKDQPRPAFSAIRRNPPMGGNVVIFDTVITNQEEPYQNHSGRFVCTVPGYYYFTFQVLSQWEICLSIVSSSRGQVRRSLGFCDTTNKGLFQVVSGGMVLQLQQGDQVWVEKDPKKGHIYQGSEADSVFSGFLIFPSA
T1 sequence (P02746 28-253, chain 2 of 3): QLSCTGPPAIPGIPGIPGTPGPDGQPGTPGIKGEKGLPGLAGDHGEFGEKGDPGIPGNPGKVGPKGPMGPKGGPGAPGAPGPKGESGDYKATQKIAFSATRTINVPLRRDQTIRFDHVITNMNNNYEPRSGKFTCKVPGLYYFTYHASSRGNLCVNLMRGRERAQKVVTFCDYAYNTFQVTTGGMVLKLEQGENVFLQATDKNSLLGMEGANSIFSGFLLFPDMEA
T1 sequence (P02747 29-245, chain 3 of 3): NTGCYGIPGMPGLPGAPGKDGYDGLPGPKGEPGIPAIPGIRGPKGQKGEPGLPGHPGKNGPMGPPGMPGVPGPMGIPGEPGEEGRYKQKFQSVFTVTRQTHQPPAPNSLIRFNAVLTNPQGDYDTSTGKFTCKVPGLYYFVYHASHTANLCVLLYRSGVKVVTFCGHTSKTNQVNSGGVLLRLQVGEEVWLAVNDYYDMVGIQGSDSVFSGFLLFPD

B1: C1q-binding peptide P^TsCRT (TsCRT residues 122-146) (peptide)
peptide: DLEDFNSDTPYRIMFGPDICGPEKR
notes: calreticulin of Trichinella spiralis (TsCRT), residues 122-146; source: synthetic peptide
**Q.** B1 was tested. Which Kd did it give?
**A.** 260 nM

Reference: article PMC11059001, “Crystal structure of Trichinella spiralis calreticulin and the structural basis of its complement evasion mechanism involving C1q” (Frontiers in Immunology, 2024)
